Results: publication doi:10.1101/2025.04.03.647111

How the values were obtained:
[1] = molecular target: HtpG from Synechococcus elongatus PCC 7942 (Synechococcus elongatus PCC 7942); assay: SEC
[2] = molecular target: HtpG from Synechococcus elongatus PCC 7942 (Synechococcus elongatus PCC 7942); assay: AUC

Work on “HtpG from Synechococcus elongatus PCC 7942 (natural protein)” yielded a stoichiometry N [1] of 2 and a stoichiometry N [2] of 2.
